Results on one substance are retold here after patent US20230257458A1.

In one assay the target is IL-11 protein (UniProt P20809). Kind of assay: ELISA, purchased IL-11 antibody (Abcam, ab130083) on IL-11, positive control. On the technique in general: In an ELISA, binding on a coated surface is turned into a signal by an enzyme label.
Another assay concerns the target IL-11-Fc protein (UniProt P20809). Description: competition ELISA: IL-11R-His coated, IL-11-Fc co-incubated with a concentration gradient of the antibody, detection with HRP goat anti-IgG-Fc; blocked partner IL-11R-His.

Sequence of IL-11 protein (P20809 22-199 limits assumed): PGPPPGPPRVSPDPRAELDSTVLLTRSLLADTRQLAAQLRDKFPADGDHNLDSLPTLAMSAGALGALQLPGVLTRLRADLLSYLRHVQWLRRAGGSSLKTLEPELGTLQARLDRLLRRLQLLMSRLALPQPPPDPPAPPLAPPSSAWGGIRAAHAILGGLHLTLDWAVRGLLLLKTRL
Sequence of IL-11-Fc protein (P20809 22-199 limits assumed): as above

6D9A1 (Abcam, ab130083) (antibody): the OD(450 nm) value with IL-11 protein stood at 3.62. Moreover, in the assay with IL-11-Fc protein, the IC50 (read off the curve) worked out at 1 µg/mL.
